Results published in patent US20210292392A1.

Biological target: full length spike (S) protein of SARS-CoV-2 (SARS-CoV-2) (UniProt P0DTC2)
Assay: cell-based or functional assay

VRC01 (antibody)
Neutralizing activity (%) Mean at 0.0228624 µg/ml: 13.2%
Neutralizing activity (%) Mean at 0.0685871 µg/ml: 10.4%
Neutralizing activity (%) Mean at 0.2057613 µg/ml: 14.4%
Neutralizing activity (%) Mean at 0.6172839 µg/ml: 24.9%
Neutralizing activity (%) Mean at 1.851852 µg/ml: 8.1%
Neutralizing activity (%) Mean at 5.555555 µg/ml: 27.1%
Neutralizing activity (%) Mean at 16.66667 µg/ml: 26.6%
Neutralizing activity (%) Mean at 50 µg/ml: 33.9%
